Changes are numbered by the printed parent chain. Names may count otherwise.
T1: EsCas13d, nuclease-dead (Eubacterium siraeum, UniProt B0MS50, R295A;H300A;R849A;H854A)
T1 sequence: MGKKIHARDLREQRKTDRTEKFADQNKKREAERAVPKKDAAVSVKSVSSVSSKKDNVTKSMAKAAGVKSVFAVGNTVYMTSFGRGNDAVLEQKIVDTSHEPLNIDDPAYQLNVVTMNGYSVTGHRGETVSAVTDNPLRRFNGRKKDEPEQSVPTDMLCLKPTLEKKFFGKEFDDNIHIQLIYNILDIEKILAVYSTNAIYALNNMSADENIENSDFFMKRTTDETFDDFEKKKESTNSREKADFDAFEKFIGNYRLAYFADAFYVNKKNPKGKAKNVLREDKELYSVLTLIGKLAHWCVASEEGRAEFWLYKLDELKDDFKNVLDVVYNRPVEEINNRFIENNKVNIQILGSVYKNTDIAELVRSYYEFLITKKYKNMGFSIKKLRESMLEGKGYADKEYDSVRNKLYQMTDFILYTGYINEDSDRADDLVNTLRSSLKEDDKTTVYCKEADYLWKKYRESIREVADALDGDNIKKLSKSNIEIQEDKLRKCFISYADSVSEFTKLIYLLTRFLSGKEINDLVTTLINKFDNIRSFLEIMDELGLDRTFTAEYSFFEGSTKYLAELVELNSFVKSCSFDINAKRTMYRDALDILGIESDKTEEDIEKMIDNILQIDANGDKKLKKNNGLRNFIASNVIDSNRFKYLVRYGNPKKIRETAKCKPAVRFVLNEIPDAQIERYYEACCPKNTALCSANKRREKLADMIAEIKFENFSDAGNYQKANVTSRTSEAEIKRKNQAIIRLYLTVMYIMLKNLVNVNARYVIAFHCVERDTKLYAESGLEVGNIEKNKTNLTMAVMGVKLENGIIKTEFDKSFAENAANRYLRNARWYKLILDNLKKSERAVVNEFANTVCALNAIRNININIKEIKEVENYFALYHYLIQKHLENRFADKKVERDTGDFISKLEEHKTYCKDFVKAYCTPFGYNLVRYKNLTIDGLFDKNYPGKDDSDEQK

B1: target 1 insU 3' of 20,insC 3' of 20 (mixed)
RNA 1: CACCCGUGCAAAAAUGCAGGGGUCUAAAACUGAGCGGAUAACCUCUCUAUGG
RNA 2: GGGAAUGGAUCCACAUCUACGAAUUCGUACCAUCUAGAGAGGUUAUCCGCUCACCGAGAUCGGAAGAGCACACGU
B2: target 1 insA 3' of 15,insC 3' of 5 (mixed)
RNA 1: B1 RNA 1
RNA 2: GGGAAUGGAUCCACAUCUACGAAUUCGUACCAUAGAGAAGGUUAUCCGCCUCACCGAGAUCGGAAGAGCACACGU
B3: target 1 C2U,G15U (mixed)
RNA 1: B1 RNA 1
RNA 2: GGGAAUGGAUCCACAUCUACGAAUUCGUACCAUAGAUAGGUUAUCCGCUUACCGAGAUCGGAAGAGCACACGU
B4: target 3 U2A (mixed)
RNA 1: CACCCGUGCAAAAUUGCAGGGGUCUAAAACGACCUGAAUAUUUCAGAUCAAA
RNA 2: GGGAAUGGAUCCACAUCUACGAAUUCGUUUUUGAUCUGAAAUAUUCAGGACUGCAGAUCGGAAGAGCACACGU
B5: target 3 insC 3' of 11,insA 3' of 10 (mixed)
RNA 1: B4 RNA 1
RNA 2: GGGAAUGGAUCCACAUCUACGAAUUCGUUUUUGAUCUGAAACUAAUUCAGGUCUGCAGAUCGGAAGAGCACACGU
B6: target 3 insU 3' of 6 (mixed)
RNA 1: B4 RNA 1
RNA 2: GGGAAUGGAUCCACAUCUACGAAUUCGUUUUUGAUCUGAAAUAUUCUAGGUCUGCAGAUCGGAAGAGCACACGU
B7: target 3 insC 3' of 7,insG 3' of 5 (mixed)
RNA 1: B4 RNA 1
RNA 2: B5 RNA 2 with C42U, U43A, A44U, A45U, U46C, U47C, C48A, A49G
B8: target 3 insA 3' of 21,insA 3' of 4 (mixed)
RNA 1: B4 RNA 1
RNA 2: GGGAAUGGAUCCACAUCUACGAAUUCGUUUUAUGAUCUGAAAUAUUCAGAGUCUGCAGAUCGGAAGAGCACACGU
B9: target 3 insG 3' of 6,insG 3' of 1 (mixed)
RNA 1: B4 RNA 1
RNA 2: GGGAAUGGAUCCACAUCUACGAAUUCGUUUUUGAUCUGAAAUAUUCGAGGUCGUGCAGAUCGGAAGAGCACACGU
B10: target 3 insA 3' of 4,insU 3' of 3 (mixed)
RNA 1: B4 RNA 1
RNA 2: B9 RNA 2 with G47A, A48G, G49A, C52U, G53C
B11: target 3 insG 3' of 9,insG 3' of 8 (mixed)
RNA 1: B4 RNA 1
RNA 2: B5 RNA 2 with C42U, U43A, A44G, A45U, U46G
B12: target 3 insA 3' of 8,insA 3' of 8 (mixed)
RNA 1: B4 RNA 1
RNA 2: B5 RNA 2 with C42U, U43A, A44U, U46A
B13: target 3 del6,del22 (mixed)
RNA 1: B4 RNA 1
RNA 2: GGGAAUGGAUCCACAUCUACGAAUUCGUUUUGAUCUGAAAUAUUAGGUCUGCAGAUCGGAAGAGCACACGU
B14: target 3 insU 3' of 13,insG 3' of 2 (mixed)
RNA 1: B4 RNA 1
RNA 2: B5 RNA 2 with A40U, C42A, A45U, U47C, C48A, A49G, G51U, U52G
B15: target 3 U2C,A5C (mixed)
RNA 1: B4 RNA 1
RNA 2: B4 RNA 2 with A47C, A50C
B16: target 3 A11C,G14A (mixed)
RNA 1: B4 RNA 1
RNA 2: B4 RNA 2 with G38A, A41C, A50U
B17: target 3 insG 3' of 6,insU 3' of 1 (mixed)
RNA 1: B4 RNA 1
RNA 2: B9 RNA 2 with G53U
B18: target 3 insG 3' of 6,insU 3' of 5 (mixed)
RNA 1: B4 RNA 1
RNA 2: B9 RNA 2 with G49U, U51G, C52U, G53C
B19: target 3 G4A,A11C (mixed)
RNA 1: B4 RNA 1
RNA 2: B4 RNA 2 with A41C, G48A, A50U
B20: target 3 U2A,A5U (mixed)
RNA 1: B4 RNA 1
RNA 2: B4 RNA 2 with A47U
B21: target 3 insG 3' of 8,insU 3' of 4 (mixed)
RNA 1: B4 RNA 1
RNA 2: B9 RNA 2 with U45G, C46U, G47C, G50U, U51G, C52U, G53C
B22: target 3 G19C,U20G (mixed)
RNA 1: B4 RNA 1
RNA 2: B4 RNA 2 with U32G, G33C, A50U
B23: target 3 insG 3' of 6,insC 3' of 2 (mixed)
RNA 1: B4 RNA 1
RNA 2: B9 RNA 2 with G53C
B24: target 3 insG 3' of 16,insU 3' of 1 (mixed)
RNA 1: B4 RNA 1
RNA 2: B9 RNA 2 with U37G, G38U, A39G, U42A, A43U, U44A, C46U, G47C, G53U
B25: target 3 A18G,U22G (mixed)
RNA 1: B4 RNA 1
RNA 2: B4 RNA 2 with U30G, A34G, A50U
B26: target 3 complement block 2-6 (mixed)
RNA 1: B4 RNA 1
RNA 2: B4 RNA 2 with C46G, A47U, G48C, G49C
B27: target 3 insA 3' of 7,insA 3' of 4 (mixed)
RNA 1: B4 RNA 1
RNA 2: B9 RNA 2 with C46A, G47C, G50A, U51G, C52U, G53C
B28: target 3 insU 3' of 4,insU 3' of 3 (mixed)
RNA 1: B4 RNA 1
RNA 2: B9 RNA 2 with G47A, A48G, G49U, C52U, G53C
B29: target 3 insG 3' of 8,insA 3' of 2 (mixed)
RNA 1: B4 RNA 1
RNA 2: B9 RNA 2 with U45G, C46U, G47C, C52A, G53C
B30: target 3 insC 3' of 13,insU 3' of 5 (mixed)
RNA 1: B4 RNA 1
RNA 2: B5 RNA 2 with A40C, C42A, A45U, U47C, C48A, A49U
B31: target 3 complement block 1-6 (mixed)
RNA 1: B4 RNA 1
RNA 2: B4 RNA 2 with C46G, A47U, G48C, G49C, C51G
B32: target 3 insU 3' of 6,insA 3' of 2 (mixed)
RNA 1: B4 RNA 1
RNA 2: B9 RNA 2 with G47U, C52A, G53C

Target: T1, EsCas13d, nuclease-dead
Assay: crRNA (strand 1, pre-loaded); Mg2+; 40 mM Tris-HCl pH 7.5, 150 mM NaCl, 6 mM MgCl2, 1 mM DTT, 0.1% Tween-20, 0.2 mg/ml BSA; 25 C; 10 min per concentration, then washed
Conditions: tags: His6-TwinStrep-SUMO cleaved; N-terminal SNAP kept (SNAP-Surface 488); label: 3' end held by stalled T7 RNA polymerase

Binder | Kd [nM]
B1 | 75 ± 13
B2 | 16.7 ± 1.4
B3 | 29 ± 4
B4 | 24.3 ± 1.8
B5 | 46.5 ± 16.5
B6 | 17.3 ± 1.35
B7 | 58.5 ± 9.5
B8 | ~81.5
B9 | 25 ± 10.5
B10 | 72 ± 18.5
B11 | 57 ± 6
B12 | 63 ± 8.5
B13 | 19.4 ± 1.9
B14 | 35.5 ± 7
B15 | 105 ± 18.5
B16 | 51 ± 10

Binder | Kd [nM]
B17 | 56.5 ± 15
B18 | 7.59 ± 0.605
B19 | 48.5 ± 11.5
B20 | 7.35 ± 1.15
B21 | 21.2 ± 4.45
B22 | ~49
B23 | 74 ± 27
B24 | 74 ± 24
B25 | 64 ± 10
B26 | 58.5 ± 9
B27 | 66 ± 12
B28 | 15.2 ± 1.8
B29 | 67.5 ± 17
B30 | 100 ± 40
B31 | 28.5 ± 4.5
B32 | 47 ± 14

— paper PMC10786891, “Massively parallel profiling of RNA-targeting CRISPR-Cas13d”
